We go through 1 molecule from US20040152160A1 (UNIVERSITY OF SOUTH FLORIDA, published 2004).

The test deals with α7-2-nAChR (homomeric receptor of the rat α7-2 splice variant subunit expressed in Xenopus oocytes) (rat, UniProt Q05941 28-502). In words: summary statement; no assay given at this place.

B1: α-bungarotoxin (ligand)
chain: IVCHTTATSPISAVTCPPGENLCYRKMWCDAFCSSRGKVVELGCAATCPSKKPYEEVTCCSTDKCNPHPKQRPG
For B1, the binding result is “binds”.
